Reference: the Immune Epitope Database (IEDB)
pIC50, pKd: −log10 of the molar value.

What follows are sequences tested against HLA-A*01:01 (assay: IEDB peptide-MHC binding, purified MHC/competitive/radioactivity; filed as Kd, often an IC50 or EC50 that approximates it; ≥ and ≤ were set here for values at or beyond the usual limits of such assays). Conditions: source organism: Homo sapiens.

Sequence | pKd
LGSVVGNWQY | 4.90
NYPLWSQSY | ≤ 4.44
LVTCLGLSY | 5.53
KMVELVHFLL | ≤ 4.44
LLGDNQIMPK | ≤ 4.44
LYIFATCLGL | ≤ 4.44
LVFGIELMEV | ≤ 4.44
IFATCLGLSY | 4.90
KVAELVHFL | ≤ 4.44

Each sequence was assayed against HLA-A*01:01 (assay: IEDB peptide-MHC binding, purified MHC/competitive/radioactivity; ≥ and ≤ were set here for values at or beyond the usual limits of such assays). Conditions: source organism: Homo sapiens.

Sequence | pIC50
FATCLGLSY | 6.18
